{"source": "patent US20200405841A1", "about": "(GlaxoSmithKline, published 2020)", "binders": {"B1": {"name": "FHUSPA2/10 monoclonal antibody (antibody, V domains shown)", "VH": "EVQLQQSGTVLARPGASVKMSCKASGYSFTSYWMHWVKQRPGQGLEWIGAIYPGNSDTSYNQKFKGKAKLTAVTSASTAYMELSNLTNEDSAVYSCTLLRFLDAYWGQGTLVTVSA", "VL": "QIVLSQSPAILSASPGEKVTMTCRASSSVSYMHWYQQKPGSSPKPWIYATSNLASGVPARFSGSGSGTSYSLTISRVEAEDAATYYCQQWSSNPPTFGGGSKLEIK", "notes": "Hybridoma-secreted mouse monoclonal antibody; Isotype confirmed as IgG2a, light chain of kappa class; also called FHUSPA2/10 mAb; anti-UspA2 monoclonal antibody FHUSPA2/10"}}, "key": {"[1]": {"biological_target": "T1, UspA2 of Moraxella catarrhalis strain ATCC 25238 (Moraxella catarrhalis)", "T1 chain": "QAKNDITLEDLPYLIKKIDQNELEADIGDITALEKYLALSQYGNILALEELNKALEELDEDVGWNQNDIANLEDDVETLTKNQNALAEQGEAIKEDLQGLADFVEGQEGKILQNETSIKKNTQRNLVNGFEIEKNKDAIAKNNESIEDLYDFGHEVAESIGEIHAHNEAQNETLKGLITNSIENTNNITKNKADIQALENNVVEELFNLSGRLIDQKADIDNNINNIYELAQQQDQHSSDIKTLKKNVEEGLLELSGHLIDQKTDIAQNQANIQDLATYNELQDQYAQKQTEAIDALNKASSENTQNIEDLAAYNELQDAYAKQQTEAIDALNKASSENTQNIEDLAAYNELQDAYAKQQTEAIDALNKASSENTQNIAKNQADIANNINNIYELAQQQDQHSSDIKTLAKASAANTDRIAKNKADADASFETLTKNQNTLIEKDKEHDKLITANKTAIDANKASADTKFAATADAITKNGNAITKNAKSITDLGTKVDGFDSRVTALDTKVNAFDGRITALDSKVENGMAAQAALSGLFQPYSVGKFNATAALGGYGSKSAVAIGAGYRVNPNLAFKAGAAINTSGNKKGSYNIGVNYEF", "experiment": "cell-based or functional assay"}, "[2]": {"biological_target": "UspA2H of Moraxella catarrhalis UK isolate 268 (AERIS study) (Moraxella catarrhalis)", "experiment": "cell-based or functional assay"}, "[3]": {"biological_target": "UspA2H of Moraxella catarrhalis UK isolate 415 (AERIS study) (Moraxella catarrhalis)", "experiment": "cell-based or functional assay"}, "[4]": {"biological_target": "UspA2H of Moraxella catarrhalis UK isolate 193 (AERIS study) (Moraxella catarrhalis)", "experiment": "cell-based or functional assay"}, "[5]": {"biological_target": "UspA2 of Moraxella catarrhalis Denmark isolate BBH18 (Moraxella catarrhalis)", "experiment": "cell-based or functional assay"}, "[6]": {"biological_target": "UspA2H of Moraxella catarrhalis UK isolate 296 (AERIS study) (Moraxella catarrhalis)", "experiment": "cell-based or functional assay"}, "[7]": {"biological_target": "T2, UspA2 of Moraxella catarrhalis Dutch isolate F10 (Moraxella catarrhalis)", "T2 chain": "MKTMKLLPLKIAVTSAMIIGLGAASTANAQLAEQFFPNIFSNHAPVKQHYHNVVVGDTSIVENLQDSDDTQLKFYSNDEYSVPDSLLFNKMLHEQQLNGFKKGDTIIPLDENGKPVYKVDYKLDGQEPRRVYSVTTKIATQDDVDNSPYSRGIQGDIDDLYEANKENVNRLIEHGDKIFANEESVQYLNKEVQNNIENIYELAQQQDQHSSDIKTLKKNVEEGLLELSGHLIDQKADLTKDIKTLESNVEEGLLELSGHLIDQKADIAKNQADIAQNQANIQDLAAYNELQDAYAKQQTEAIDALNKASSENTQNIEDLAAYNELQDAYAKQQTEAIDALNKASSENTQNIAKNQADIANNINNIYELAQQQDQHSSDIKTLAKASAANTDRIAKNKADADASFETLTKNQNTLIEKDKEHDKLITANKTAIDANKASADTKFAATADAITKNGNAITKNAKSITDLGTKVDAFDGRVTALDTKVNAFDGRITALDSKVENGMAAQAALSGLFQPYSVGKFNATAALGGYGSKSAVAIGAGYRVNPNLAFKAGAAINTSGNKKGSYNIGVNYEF", "experiment": "cell-based or functional assay"}, "[8]": {"biological_target": "UspA2H of Moraxella catarrhalis UK isolate 240 (AERIS study) (Moraxella catarrhalis)", "experiment": "cell-based or functional assay"}, "[9]": {"biological_target": "UspA1 of Moraxella catarrhalis strain ATCC 43617 (Moraxella catarrhalis)", "experiment": "cell-based or functional assay"}, "[10]": {"biological_target": "T3, recombinant soluble UspA2 (SEQ ID NO: 53) (Moraxella catarrhalis)", "T3 construct": "also called MC-009; soluble UspA2 recombinant protein", "T3 chain": "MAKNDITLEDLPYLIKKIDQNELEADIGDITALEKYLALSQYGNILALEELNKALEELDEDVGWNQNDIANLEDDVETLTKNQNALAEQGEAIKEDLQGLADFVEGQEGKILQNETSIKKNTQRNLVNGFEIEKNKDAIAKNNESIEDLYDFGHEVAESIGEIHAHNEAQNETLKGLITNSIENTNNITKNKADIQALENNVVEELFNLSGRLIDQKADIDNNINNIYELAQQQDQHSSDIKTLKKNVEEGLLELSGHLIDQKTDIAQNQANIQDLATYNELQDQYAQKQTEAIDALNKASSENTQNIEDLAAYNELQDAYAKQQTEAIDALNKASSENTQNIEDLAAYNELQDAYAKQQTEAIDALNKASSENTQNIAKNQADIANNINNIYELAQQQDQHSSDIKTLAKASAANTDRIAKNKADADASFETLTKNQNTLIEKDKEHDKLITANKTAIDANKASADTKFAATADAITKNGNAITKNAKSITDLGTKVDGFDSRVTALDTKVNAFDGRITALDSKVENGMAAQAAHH", "experiment": "negative-stain electron microscopy of the complex"}}, "data": [{"binder": "B1", "values": [{"measurement": "bactericidal activity (mid-point titer)", "setting": "[1]", "result": "1.88e+06 reciprocal dilution inducing 50% of killing"}, {"measurement": "bactericidal activity (mid-point titer)", "setting": "[2]", "result": "> 384000 reciprocal dilution inducing 50% of killing"}, {"measurement": "bactericidal activity (mid-point titer)", "setting": "[3]", "result": "256000 reciprocal dilution inducing 50% of killing"}, {"measurement": "bactericidal activity (mid-point titer)", "setting": "[4]", "result": "> 640000 reciprocal dilution inducing 50% of killing"}, {"measurement": "bactericidal activity (mid-point titer)", "setting": "[5]", "result": "386000 reciprocal dilution inducing 50% of killing"}, {"measurement": "bactericidal activity (mid-point titer)", "setting": "[6]", "result": "114000 reciprocal dilution inducing 50% of killing"}, {"measurement": "bactericidal activity (mid-point titer)", "setting": "[7]", "result": "528000 reciprocal dilution inducing 50% of killing"}, {"measurement": "bactericidal activity (mid-point titer)", "setting": "[8]", "result": "> 25600 reciprocal dilution inducing 50% of killing"}, {"measurement": "bactericidal activity (mid-point titer)", "setting": "[9]", "result": "< 100 reciprocal dilution inducing 50% of killing"}, {"measurement": "binding result", "setting": "[10]", "result": "binds"}]}]}
